Residue numbers refer to the chain shown, from its start. Names and notes keep the numbering of the source.
T1: Human CD1d on cells (human, UniProt P15813 20-335)
T1 sequence (looked up): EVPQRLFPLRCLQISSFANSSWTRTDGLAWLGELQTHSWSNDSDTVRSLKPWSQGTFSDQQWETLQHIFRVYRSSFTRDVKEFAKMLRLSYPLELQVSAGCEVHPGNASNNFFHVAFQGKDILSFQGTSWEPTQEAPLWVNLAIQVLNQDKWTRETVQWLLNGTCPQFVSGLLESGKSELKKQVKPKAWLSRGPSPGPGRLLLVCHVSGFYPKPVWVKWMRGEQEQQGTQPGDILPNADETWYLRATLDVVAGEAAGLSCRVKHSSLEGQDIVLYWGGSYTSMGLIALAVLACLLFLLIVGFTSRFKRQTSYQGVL

B1: 401.11.181 (antibody, IgG4, V domains shown)
VH: QVQLVESGGGLVKPGRSLRLSCAASGFTFDDYAMHWVRQAPGKGLEWVATIIWNSAIIGYADSVKGRFIVSRDNAKNSLYLQMNSLRAEDTALYYCAKDMCSSGGCPDGYFDSWGQGTLVTVSS
VL: DIQMTQSPSSVSASVGDRVTITCRASQHISSWLAWYQQKPGKAPKLLIYAASSLQSGVPSRFSGSGSGTDFTLTISSLQPEDFATYYCQQANRFPLTFGGGTKLEIKR
B2: 401.11.167 (antibody, IgG4, V domains shown)
VH: B1 VH with Q1E, K13Q
VL: B1 VL with K45N
notes: IgG4 (S228P)
B3: 401.11.165 (antibody, IgG4, V domains shown)
VH: B1 VH with Q1E, K13Q
VL: B1 VL
notes: IgG4 (S228P)
B4: 401.11.166 (antibody, IgG4, V domains shown)
VH: B1 VH with Q1E, K13Q
VL: B1 VL with P59S
notes: IgG4 (S228P)
B5: 401.11.161 (antibody, IgG4, V domains shown)
VH: B1 VH with Q1E, K13Q, T91M
VL: B1 VL
notes: IgG4 (S228P)
B6: 401.11.151 (antibody, IgG4, V domains shown)
VH: B1 VH with Q1E, K13Q, G104S
VL: B1 VL
B7: 401.11.155 (antibody, IgG4, V domains shown)
VH: B1 VH with Q1E, K13Q, T91M, G104S
VL: B1 VL
notes: IgG4 (S228P)
B8: 401.11.159 (antibody, IgG4, V domains shown)
VH: B1 VH with Q1E, K13Q, T91M
VL: B1 VL with P59S
B9: 401.11.154 (antibody, IgG4, V domains shown)
VH: B1 VH with E6G, G104S
VL: B1 VL
notes: IgG4 (S228P)
B10: 401.11.152 (antibody, IgG4, V domains shown)
VH: B1 VH with Q1E, K13Q, G104S
VL: B1 VL with P59S
notes: IgG4 (S228P)
B11: 401.11.160 (antibody, IgG4, V domains shown)
VH: B1 VH with Q1E, K13Q, T91M
VL: B1 VL with K45N
notes: IgG4 (S228P)
B12: 401.11.178 (antibody, V domains shown)
VH: B1 VH with E6G, M100L
VL: DIQMTQSPSSVSASVGDRVTITCRASQHISSWLAWYQQKPGKAPKLLIYAASSLQSGVPSRFSGSGSGTDFTLTISSLQPEDFATYYCQQANRFPLTFGGGTKLEIK
B13: 401.11.177 (antibody, V domains shown)
VH: B1 VH with E6G, M100I
VL: B12 VL
B14: 401.11.179 (antibody, IgG4, V domains shown)
VH: B1 VH with E6G, D108E
VL: B1 VL
notes: IgG4 (S228P)
B15: 401.11.69 (antibody, name in Kabat numbering, V domains shown)
VH: B1 VH with E6G, T91M, S103D, G104S
VL: B1 VL with K45N, P59S
B16: 401.11.70 (antibody, name in Kabat numbering, V domains shown)
VH: B1 VH with E6G, T91M, S103T, G104S
VL: B1 VL with K45N, P59S
B17: 401.11.79 (antibody, name in Kabat numbering, V domains shown)
VH: B1 VH with E6G, T91M, G104T
VL: B1 VL with K45N, P59S
B18: 401.11.84 (antibody, name in Kabat numbering, V domains shown)
VH: B1 VH with E6G, T91M, G104R
VL: B1 VL with K45N, P59S
B19: 401.11.71 (antibody, name in Kabat numbering, V domains shown)
VH: B1 VH with E6G, T91M, S103W, G104S
VL: B1 VL with K45N, P59S
B20: 401.11.77 (antibody, name in Kabat numbering, V domains shown)
VH: B1 VH with E6G, T91M, S103G, G104S
VL: B1 VL with K45N, P59S
B21: 401.11.72 (antibody, name in Kabat numbering, V domains shown)
VH: B1 VH with E6G, T91M, S103L, G104S
VL: B1 VL with K45N, P59S
B22: 401.11.73 (antibody, name in Kabat numbering, V domains shown)
VH: B1 VH with E6G, T91M, S103V, G104S
VL: B1 VL with K45N, P59S
B23: 401.11.80 (antibody, name in Kabat numbering, V domains shown)
VH: B1 VH with E6G, T91M, G104W
VL: B1 VL with K45N, P59S
B24: 401.11.81 (antibody, name in Kabat numbering, V domains shown)
VH: B1 VH with E6G, T91M, G104L
VL: B1 VL with K45N, P59S
B25: 401.11.75 (antibody, name in Kabat numbering, V domains shown)
VH: B1 VH with E6G, T91M, S103R, G104S
VL: B1 VL with K45N, P59S
B26: 401.11.74 (antibody, name in Kabat numbering, V domains shown)
VH: B1 VH with E6G, T91M, S103K, G104S
VL: B1 VL with K45N, P59S
B27: 401.11.85 (antibody, name in Kabat numbering, V domains shown)
VH: B1 VH with E6G, T91M, G104Y
VL: B1 VL with K45N, P59S
B28: 401.11.83 (antibody, name in Kabat numbering, V domains shown)
VH: B1 VH with E6G, T91M, G104K
VL: B1 VL with K45N, P59S
B29: 401.11.82 (antibody, name in Kabat numbering, V domains shown)
VH: B1 VH with E6G, T91M, G104V
VL: B1 VL with K45N, P59S
B30: 401.11.180 (antibody, IgG4, V domains shown)
VH: B1 VH with E6G, M100L, D108E
VL: B1 VL
B31: 402.8.54 (antibody, IgG4, V domains shown)
VH: QVQLQESGPGLVKPSETLSLTCAVYGGSFSGYYWSWIRQPPGKGLEWIGEINHAGSTNYNPSLKSRVTISVDTSKNQFSLKLSSVTAADTAVYYCARGEIYDFWKSYMEVWGKGTTVTVSS
VL: QTVVTQEPSLTVSPGGTVTLTCASSSGAVSSGNFPNWFQQKPGQAPRALIFSASNKHSWTPARFSGSLLGGKAVLTLSGVQPEDEAEYYCLLYFGDTQLGVFGGGTKVTVL
B32: 402.8.55 (antibody, IgG4, V domains shown)
VH: B31 VH with M108L
VL: B31 VL

Each binder was assayed against T1, Human CD1d on cells (assay: cell-based or functional assay).

| NKT IFN-γ EC50 (THP-1) | NKT IFN-γ EC50 (moDC) | NKT IL-4 EC50 (THP-1) | NKT IL-4 EC50 (moDC) | NKT IL-13 EC50 (THP-1) | Binder |
| --- | --- | --- | --- | --- | --- |
| 3.25 ng/mL | 2.63 ng/mL | 3.19 ng/mL | 1.1 ng/mL | 5.04 ng/mL | B1 |

Molecular target: T1, Human CD1d on cells
Assay: cell-based or functional assay
Remark: another data set of the same source

| NKT IFN-γ EC50 (THP-1) | NKT IL-4 EC50 (THP-1) | NKT IL-5 EC50 (THP-1) | NKT IL-13 EC50 (THP-1) | NKT TNF EC50 (THP-1) | Binder |
| --- | --- | --- | --- | --- | --- |
| 6.51 ng/mL | 2.89 ng/mL | 4.98 ng/mL | 7.46 ng/mL | 4 ng/mL | B2 |
| 6.15 ng/mL | 1.11 ng/mL | 3.73 ng/mL | 5.76 ng/mL | 3.04 ng/mL | B3 |
| 6.98 ng/mL | 2.75 ng/mL | 5.38 ng/mL | 7.25 ng/mL | 4.02 ng/mL | B4 |

Molecular target: T1, Human CD1d on cells
Assay: cell-based or functional assay
Remark: another data set of the same source

| NKT IL-4 EC50 (moDC) | NKT IL-13 EC50 (moDC) | Binder |
| --- | --- | --- |
| 5.24 ng/mL | 8.38 ng/mL | B5 |
| 12.9 ng/mL | 57.5 ng/mL | B6 |
| 27.6 ng/mL | 74.7 ng/mL | B7 |
| 1.69 ng/mL | 10.5 ng/mL | B8 |
| 4.16 ng/mL | 17.7 ng/mL | B9 |
| 10.2 ng/mL | 78.5 ng/mL | B10 |
| 1.56 ng/mL | 6.52 ng/mL | B11 |

These binders were tested against T2, Human CD1d/β2M (human, UniProt P15813 20-301; P61769 21-119) (assay: SPR).
T2 construct: also called hCD1d; recombinant human CD1d

| Kd | Binder |
| --- | --- |
| 0.17 nM | B2 |
| 0.255 nM | B5 |
| 0.468 nM | B12 |
| 2.42 nM | B7 |
| 1.77 nM | B9 |
| 0.168 nM | B3 |
| 2.83 nM | B10 |
| 0.109 nM | B11 |
| 0.507 nM | B13 |
| 0.173 nM | B4 |
| 0.274 nM | B14 |

These binders were tested against T2, Human CD1d/β2M (assay: SPR, transfection supernatant).

| Kd | binding result | Binder |
| --- | --- | --- |
| 0.144 nM |  | B15 |
| 0.549 nM |  | B16 |
|  | no binding | B17 |
| 1.12 nM |  | B18 |
| < 0.01 nM |  | B19 |
| 0.272 nM |  | B20 |
| 0.649 nM |  | B21 |
| 0.527 nM |  | B22 |
| 2.34 nM |  | B23 |
| 0.552 nM |  | B24 |
|  | no binding | B25 |
| 0.0933 nM |  | B26 |
| 82.3 nM |  | B27 |
| 1.55 nM |  | B28 |
|  | no binding | B29 |

Molecular target: T1, Human CD1d on cells
Assay: cell-based or functional assay
Remark: another data set of the same source

| NKT IFN-γ EC50 (moDC) | NKT IL-4 EC50 (moDC) | NKT IL-5 EC50 (moDC) | NKT IL-13 EC50 (moDC) | Binder |
| --- | --- | --- | --- | --- |
| 15.1 ng/mL | 0.969 ng/mL | 1.38 ng/mL | 1.76 ng/mL | B12 |
| 49.5 ng/mL | 1.31 ng/mL | 3.35 ng/mL | 4.09 ng/mL | B30 |
| 7.56 ng/mL | 0.731 ng/mL | 1.4 ng/mL | 1.27 ng/mL | B13 |
| 30.2 ng/mL | 0.73 ng/mL | 2.1 ng/mL | 2.43 ng/mL | B14 |

Molecular target: T1, Human CD1d on cells
Assay: cell-based or functional assay
Remark: another data set of the same source

| NKT IFN-γ EC50 (moDC) | NKT IL-4 EC50 (moDC) | Binder |
| --- | --- | --- |
| 138 ng/mL | 109 ng/mL | B31 |
| 445 ng/mL | 175 ng/mL | B32 |

Reference: patent US20140286957A1 (Teva, published 2014)
